Data reported in US20220235138A1, “CAR-T CELLS TARGETING IL-1RAP AND THEIR USE IN ACUTE MYELOID LEUKEMIA (AML)” (ETABLISSEMENT FRANCAIS DU SANG, priority 2019, published 2022).

Key:
[1] = target: T1, recombinant IL-1RAP biotinylated protein (Homo sapiens, UniProt Q9NPH3); experiment: Flow cytometry detection of cell surface CAR with biotinylated recombinant IL-1RAP; format: binding; conditions: for amount of recombinant IL-1RAP protein required for recruiting maximum of cells: single experiment
T1 sequence (Q9NPH3 21-359 limits assumed): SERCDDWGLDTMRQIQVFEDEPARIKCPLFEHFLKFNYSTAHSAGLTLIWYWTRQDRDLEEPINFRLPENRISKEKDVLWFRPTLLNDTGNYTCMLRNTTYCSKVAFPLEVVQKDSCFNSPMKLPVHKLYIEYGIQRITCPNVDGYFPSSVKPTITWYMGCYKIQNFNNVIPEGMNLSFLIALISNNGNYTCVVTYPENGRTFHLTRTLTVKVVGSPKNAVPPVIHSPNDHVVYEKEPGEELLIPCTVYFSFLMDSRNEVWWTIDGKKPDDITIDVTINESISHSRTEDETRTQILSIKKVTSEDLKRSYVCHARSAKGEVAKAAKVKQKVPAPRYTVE
Protocol: CEM cell line or primary T cells were transduced either with Mock or CAR IL-1RAP. Cells were then incubated in presence of increasing amount of recombinant IL-1RAP labelled with biotin. Staining was performed with an anti-biotin fluorescent antibody and analyzed by flow cytometry. Percentage of Biotin+/CD19+ CEM or T-cells plotted against amount of labelled biotin recombinant protein. Dot plots of cytometry analyze were provided for representative staining, including maximum. Untransduced T cells (C0) or Mock T cells were used as control.
Additional analysis using serial dilution of biotinylated IL-1RAP protein (from 20 ng to 2.4 pg/ml) and FACS analysis allow to detect either IL-1RAP CAR transduced CEM T cell line or primary T-cells.

[2] = tested on: iCASP9/AP1903 suicide system; experiment: Optical microscopy of transduced 293T cells after CID AP1903 exposure; format: cell-based, human; conditions: CID AP1903 20 nM, 24 h (10 nM)
[3] = transduced primary T-cells (GMTC)

maximum percentage of Biotin+/CD19+ cells ([1]; transduced CEM T cell line): 85.8%
amount of recombinant IL-1RAP protein required for recruiting maximum of cells ([1]; transduced CEM T cell line): 1.25 ng
maximum percentage of Biotin+/CD19+ cells [1, 3]: 68.5%
amount of recombinant IL-1RAP protein required for recruiting maximum of cells [1, 3]: 0.15 ng
B1: IL-1RAP CAR: chimeric antigen receptor: #E3C3 scFv in frame with CD28-4.1BB-CD3z signaling chain; tested in transduced CEM, primary T or 293T cells (protein)
scFv: QVQLQQPGAELMMPGASVKVSCEASGYTFTDSWMHWVKQRPGQGLEWIGAIDPSDSYTTYNQKFTGKATLSVDESSNTAYMQLSSLTSEDSAVYYCARYYSGSNYISPFPYWGQGTLVTVSAGGSGGGGSGGGGSVDMESQIQVFVFVFLWLSGVDGDIVMTQSHKFMSTSVGDRVTITCKASLDVSTAVAWYQQKPGQSPKLLIYSASYRYTGVPDRFTGSGSGTDFTFTISSVQAEDLAVYYCQQHYSPPFTFGSGTNLEIK
modifications: left off: small tags and cut ends
notes: chimeric antigen receptor: #E3C3 scFv in frame with CD28-4.1BB-CD3z signaling chain; tested in transduced CEM, primary T or 293T cells
CAR recognition and binding of IL-1RAP protein [1]: CAR specific recognition and binding of IL-1RAP protein
sensitivity of transduced 293T cell culture to CID [2]: sensitive to the CID
